Results from US9278138B2, “Peptide linkers for effective multivalent peptide binding” (E. I. DU PONT DE NEMOURS AND COMPANY, priority 2008, dated 2016).
Positions count from the first letter of the chain named.

B1: Gray5-(EAAAKLL)3-Gray3: hair-binding domain, SEQ ID NO: 92 (peptide)
chain: PSTAEIQSSKNPNPHPQRSWTNGPEAAAKLLEAAAKLLEAAAKLLPAHDHKNQKETHQRHAAGS
B2: MEA4-(EAAAKLL)3-IB5A: hair-binding domain, SEQ ID NO: 94 (peptide)
chain: PSHINKTNPHQGNHHSEKTQRQGPEAAAKLLEAAAKLLEAAAKLLPATPPELLHGAPRSGS
B3: HP2-TonB-Gray3: hair-binding domain, SEQ ID NO: 85, also found in peptide HC353 (peptide)
chain: PSAQSQLPDKHSGLHERAPQRYGPEPEPEPEPIPEPPKEAPVVIEKPKPKPKPKPKPPAHDHKNQKETHQRHAAGS
B4: HP2-TonB-MEA4: hair-binding domain, SEQ ID NO: 89 (peptide)
chain: PSAQSQLPDKHSGLHERAPQRYGPEPEPEPEPIPEPPKEAPVVIEKPKPKPKPKPKPPAHINKTNPHQGNHHSEKTQRQGS
B5: HP2-TonB-IB5A: hair-binding domain, SEQ ID NO: 88 (peptide)
chain: PSAQSQLPDKHSGLHERAPQRYGPEPEPEPEPIPEPPKEAPVVIEKPKPKPKPKPKPPATPPELLHGAPRSGS
B6: HP2-TonB-HB1: hair-binding domain, SEQ ID NO: 93 (peptide)
chain: B5 chain with E63T, L64N, L65V, H66L, G67M, A68L, P69A, R70T, S71K
B7: Gray5-[(KP)6GG]2-Gray4A: hair-binding domain, SEQ ID NO: 78 (peptide)
chain: PSTAEIQSSKNPNPHPQRSWTNGPKPKPKPKPKPKPGGKPKPKPKPKPKPGGPAHNHMQERYTAPQHSPSVNGLGS
B8: HP2-(EEAAKK)4-Gray1: hair-binding domain, SEQ ID NO: 73 (peptide)
chain: PSAQSQLPDKHSGLHERAPQRYGPEEAAKKEEAAKKEEAAKKEEAAKKPAGMPAMHWIHPFAGS
B9: Gray3-(EAAAKLL)4-HB1: hair-binding domain, SEQ ID NO: 100 (peptide)
chain: PSHDHKNQKETHQRHAAGPEAAAKLLEAAAKLLEAAAKLLEAAAKLLPATPPTNVLMLATKGS
B10: KF11-[(KP)6GG]2-Gray4A: hair-binding domain, SEQ ID NO: 97 (peptide)
chain: PSNTSQLSTGPKPKPKPKPKPKPGGKPKPKPKPKPKPGGPAHNHMQERYTAPQHSPSVNGLGS
B11: Gray5-[(KP)6GG]2-HP2: hair-binding domain, SEQ ID NO: 99 (peptide)
chain: PSTAEIQSSKNPNPHPQRSWTNGPKPKPKPKPKPKPGGKPKPKPKPKPKPGGPAAQSQLPDKHSGLHERAPQRYGS
B12: HP2-(EEAAKK)5-Gray4A: hair-binding domain, SEQ ID NO: 74 (peptide)
chain: PSAQSQLPDKHSGLHERAPQRYGPEEAAKKEEAAKKEEAAKKEEAAKKEEAAKKPAHNHMQERYTAPQHSPSVNGLGS
B13: MEA4-[(KP)6GG]2-MEA4: hair-binding domain, SEQ ID NO: 102 (peptide)
chain: PSHINKTNPHQGNHHSEKTQRQGPKPKPKPKPKPKPGGKPKPKPKPKPKPGGPAHINKTNPHQGNHHSEKTQRQGS
B14: Gray5-(EAAAKLL)3-MEA4: hair-binding domain, SEQ ID NO: 90 (peptide)
chain: PSTAEIQSSKNPNPHPQRSWTNGPEAAAKLLEAAAKLLEAAAKLLPAHINKTNPHQGNHHSEKTQRQGS
B15: Gray3-TonB-HP1: hair-binding domain, SEQ ID NO: 98 (peptide)
chain: PSHDHKNQKETHQRHAAGPEPEPEPEPIPEPPKEAPVVIEKPKPKPKPKPKPPAGSCVDTHKADSCVANNGPATGS
B16: HP2-(EEAAKK)4-MEA4: hair-binding domain, SEQ ID NO: 75 (peptide)
chain: PSAQSQLPDKHSGLHERAPQRYGPEEAAKKEEAAKKEEAAKKEEAAKKPAHINKTNPHQGNHHSEKTQRQGS
B17: HP2-TonB-HP2: hair-binding domain, SEQ ID NO: 91 (peptide)
chain: PSAQSQLPDKHSGLHERAPQRYGPEPEPEPEPIPEPPKEAPVVIEKPKPKPKPKPKPPAAQSQLPDKHSGLHERAPQRYGS

What was measured:
[1] = Phage titer assay of phage binding to hair; parameters: species or system human; conditions: phage-displayed peptide; six gray hair strands; relative to HP2-TonB-Gray3 = 100
Procedure: (§1) Phage particles recovered from panning (Example 2) were used to infect E. coli 10GF′ and transformants were purified by colony isolation. Purified phagemid clones were infected with helper phage VCSM13 and phage particles were isolated. Those purified phage clones were assayed for binding to hair by two methods.
Six gray hair strands (1.5 cm long) were blocked with BSA (1 mg/mL) at room temperature (˜21° C.) for 30 min in 1.5 mL microfuge tubes, then washed twice with tris buffered saline (TBS). Phage particles were added in TBS plus 0.1% TWEEN®-20 and incubated at room temperature for 1 hour with gentle shaking. The hair was then washed 3 times with TBS plus 0.5% TWEEN®-20, and centrifuged briefly to remove excess liquid. E. coli 10GF′ (1 mL; OD600nm=0.5) was added for 15 min. Aliquots were plated on selective plates and phagemid-containing colonies were counted (Table 4)

[2] = Phage ELISA of phage binding to hair; parameters: species or system human; conditions: phage-displayed peptide, 1×10^11 pfu; A450; relative to HP2-TonB-Gray3 = 100
Procedure: as §1
Gray hair (200 strands, 1.5 cm long per bundle were blocked with BSA (1 mg/mL) at room temperature (˜21° C.) for 30 min in 1.5 mL microfuge tubes, then washed 3 times with TBS. Phage particles (1×10^11 pfu) were added in TBS plus 0.1% TWEEN®-20 and incubated at room temperature for 1 hr with gentle shaking. The hair was then washed 5 times with TBS plus 0.5% TWEEN®-20. Hair with bound phage was incubated with HRP/Anti-M13 monoclonal conjugate (GE Healthcare Bio-Science Corp, Piscataway, N.J.) at room temperature (˜21° C.) for 1 hr with gentle shaking, then washed 6 times with TBS plus 0.5% TWEEN®-20. IMMUNOPURE® TMB substrate kit (High sensitivity, Pierce, Rockford, Ill.; a division of Thermo Scientific) was used for colorimetric assay. After 15˜20 min development with gentle shaking, the reaction was stopped, and absorbance was determined at 450 nm. The Phage titer and ELISA data were reported relative to the activity observed for the hair-binding domain HP2-TonB-Gray3. (Table 4).

Molecule	Phage Titer (%) relative to the activity of HP2-TonB-Gray3 [1]	ELISA (%) relative to the activity of HP2-TonB-Gray3 [2]
Gray1-(KP)8-Gray1: hair-binding domain, SEQ ID NO: 77 (PSGMPAMHWIHPFAGPKPKPKPKPKPKPKPKPPAGMPAMHWIHPFAGS)	1%	1%
HP2-(EEAAKK)2-MEA4: hair-binding domain, SEQ ID NO: 76 (PSAQSQLPDKHSGLHERAPQRYGPEEAAKKEEAAKKPAHINKTNPHQGNHHSEKTQRQGS)	330%	130%
HB1-(KP)12-IB5A: hair-binding domain, SEQ ID NO: 96 (PSTPPTNVLMLATKGPKPKPKPKPKPKPKPKPKPKPKPKPPATPPELLHGAPRSGS)	5%	1%
Gray3-[(KP)6GG]2-KF11: hair-binding domain, SEQ ID NO: 83 (PSHDHKNQKETHQRHAAGPKPKPKPKPKPKPGGKPKPKPKPKPKPGGPANTSQLSTGS)	1%	1%
HB1-(KGGGS)4-HP2: hair-binding domain with flexible linker, SEQ ID NO: 95 (PSTPPTNVLMLATKGPKGGGSKGGGSKGGGSKGGGSPAAQSQLPDKHSGLHERAPQRYGS)	10%	1%
KF11-[(KP)6GG]2-KF11: hair-binding domain, SEQ ID NO: 101 (PSNTSQLSTGPKPKPKPKPKPKPGGKPKPKPKPKPKPGGPANTSQLSTGS)	1%	1%
B1	10%	60%
B2	10%	20%
B3	100%	100%
B4	1%	1%
B5	50%	100%
B6	30%	1%
B7	1%	1%
B8	40%	8%
B9	1%	1%
B10	1%	1%
B11	1%	1%
B12	50%	80%
B13	1%	1%
B14	25%	115%
B15	1%	1%
B16	80%	170%
B17	55%	55%
